B1: Hematopoietic cell signal transducer (Homo sapiens), Q9UBK5 (parent)
chain: MIHLGHILFLLLLPVAAAQTTPGERSSLPAFYPGTSGSCSGCGSLSLPLLAGLVAADAVASLLIVGAVFLCARPRRSPAQEDGKVYINMPGRG
B2: TYRO protein tyrosine kinase-binding protein (Homo sapiens), O43914 (parent)
chain: MGGLEPCSRLLLLPLLLAVSGLRPVQAQAQSDCSCSTVSPGVLAGIVMGDLVLTVLIALAVYFLGRLVPRGRGAAEAATRKQRITETESPYQELQGQRSDVYSDLNTQRPYYK

Columns and labels:
[1] = variants of: B1; conditions: with nkg2d_human KLRK1, P26718
[2] = variants of: B2; conditions: with nkg2c_human KLRC2, P26717
[3] = variants of: B2; conditions: with ki2s3_human KIR2DS3, Q14952
Sequence of ki2s3_human KIR2DS3, Q14952 (Q14952 whole entry): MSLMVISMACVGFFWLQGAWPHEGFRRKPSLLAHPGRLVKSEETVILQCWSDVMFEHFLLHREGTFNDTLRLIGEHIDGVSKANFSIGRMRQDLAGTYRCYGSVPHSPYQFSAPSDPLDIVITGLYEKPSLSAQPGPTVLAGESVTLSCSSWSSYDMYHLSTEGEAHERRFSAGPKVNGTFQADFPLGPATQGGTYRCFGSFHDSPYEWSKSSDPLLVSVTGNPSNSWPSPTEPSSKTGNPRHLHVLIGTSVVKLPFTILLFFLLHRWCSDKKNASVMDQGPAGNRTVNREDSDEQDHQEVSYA

Sequence of nkg2c_human KLRC2, P26717 (P26717 whole entry): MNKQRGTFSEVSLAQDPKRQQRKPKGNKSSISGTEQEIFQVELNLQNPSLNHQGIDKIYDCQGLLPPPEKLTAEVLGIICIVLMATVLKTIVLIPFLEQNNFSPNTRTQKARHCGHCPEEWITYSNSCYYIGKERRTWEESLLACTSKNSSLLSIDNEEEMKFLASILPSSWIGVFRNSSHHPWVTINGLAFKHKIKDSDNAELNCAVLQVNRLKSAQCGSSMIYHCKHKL
Sequence of nkg2d_human KLRK1, P26718 (P26718 whole entry): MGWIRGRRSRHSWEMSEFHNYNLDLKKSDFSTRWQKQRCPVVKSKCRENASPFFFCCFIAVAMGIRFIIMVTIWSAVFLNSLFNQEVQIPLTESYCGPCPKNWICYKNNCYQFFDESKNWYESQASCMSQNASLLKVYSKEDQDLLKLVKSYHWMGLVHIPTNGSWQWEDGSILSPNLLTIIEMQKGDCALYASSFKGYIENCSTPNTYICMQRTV

Variant: MIHLGHILFLLLLPVAAAQTTPGERSSLPAFYPGTSGSCSGCGSLSLPLLAGLVAAAAVASLLIVGAVFLCARPRRSPAQEDGKVYINMPGRG [D57A]
- effect of a mutation on the interaction [1]: decreasing interaction

Variant: A58F
- effect of a mutation on the interaction [2]: decreasing interaction
- effect of a mutation on the interaction [3]: decreasing interaction

Variant: T54A
- effect of a mutation on the interaction [2]: decreasing interaction
- effect of a mutation on the interaction [3]: decreasing interaction
